Fold change relative to SAD S35 antibody data for one substance are collected here from patent publication US20250026813A1.

The experiment concerns the target SARS-CoV-2 spike trimer protein (wild type), in the envelope of lentiviral pseudovirus particles (SARS-CoV-2) (UniProt P0DTC2). Nature of the experiment: cell-based or functional assay.

4A8 (antibody): the Fold change relative to SAD S35 antibody came out at 5.44 fold.
